Where two headings read alike, the source gives them in different places. Where no end group is shown, it is not given here. [ ]: non-standard residue; d: D form. The star is where a group is joined. EDDnp = O=[N+]([O-])c1ccc(NCCN*)c([N+](=O)[O-])c1; 2Abz = Nc1ccccc1C(=O)O
Key:
[1] = molecular target: protease isolated from Eupenicillium javanicum (metalloprotease, 30 kDa) (Eupenicillium javanicum)
[2] = molecular target: protease isolated from Eupenicillium javanicum (metalloprotease, 30 kDa) (Eupenicillium javanicum); remark: listed apart in the source

B1: Abz-KLRSYKQ-EDDnp (peptide)
peptide: [2Abz]KLRSYKQ-EDDnp
With B1 the KM of the hydrolysis of the FRET peptide by the purified protease (Michaelis-Menten, pH 6.0, 45°C) [1] was 0.003 mM.

B2: Abz-VLRSSKQ-EDDnp (peptide)
peptide: [2Abz]VLRSSKQ-EDDnp
Binder B2 has a KM of the hydrolysis of the FRET peptide by the purified protease (Michaelis-Menten, pH 6.0, 45°C) [2] of 0.01 mM.

B3: Abz-KLQSSKQ-EDDnp (peptide)
peptide: [2Abz]KLQSSKQ-EDDnp
B3 was tested, and the KM of the hydrolysis of the FRET peptide by the purified protease (Michaelis-Menten, pH 6.0, 45°C) [2] was 0.004 mM.

B4: Abz-KLRYSKQ-EDDnp (peptide)
peptide: [2Abz]KLRYSKQ-EDDnp
In the case of B4, the KM of the hydrolysis of the FRET peptide by the purified protease (Michaelis-Menten, pH 6.0, 45°C) [1] is reported as 0.007 mM.

B5: Abz-KFRSSKQ-EDDnp (peptide)
peptide: [2Abz]KFRSSKQ-EDDnp
B5 was tested, and the KM of the hydrolysis of the FRET peptide by the purified protease (Michaelis-Menten, pH 6.0, 45°C) [2] was 0.012 mM.

B6: Abz-KLRSIKQ-EDDnp (peptide)
peptide: [2Abz]KLRSIKQ-EDDnp
Binder B6 has a KM of the hydrolysis of the FRET peptide by the purified protease (Michaelis-Menten, pH 6.0, 45°C) [1] of 0.003 mM.

— article PMC5220088
